From paper PMC10847126

Experiments:
[1] = target: RGA5-HMA (labelled, MST) (rice) (UniProt F7J0N2); assay: MST; […]; 20 mM PBS, 150 mM NaCl, 0.05% Tween-20, pH 7.4; […]
[2] = target: RGA5-HMA5 (recombinant, MST and HDX-MS) (rice) (UniProt F7J0N2); assay: as above

## AVR-Pia (recombinant, MST) (from UniProt B9WZW9) (natural protein; other documents disagree on this pair)
[1]
  Kd: 35 µM

## AVR-PikD (recombinant, MST and HDX-MS) (natural protein)
[2]
  Kd: 12 µM
